According to the RNAGym collection of RNA variant scans (doi:10.7554/elife.80360):

B1: Hairpin Ribozyme (parent)
chain: GUCCUCUUUCACGUGCGCGUGAAAGAGAGAAGUGAACCAGAGAAACACACGUUGUGGUAUAUUACCUGGUA

Variants of: B1
Experiment: self-cleavage, relative activity (ratio to wild type); higher = more cleavage; co-transcriptional

In order of rising self-cleavage:
1. GUCCUCUUUCACGUGCGCGUGAAAGAGAGAAGUGUACCAGAGAAACACACGUUGUGGUAUUUUACCUGGUA [A35U A61U]  0.0854
2. GUCCUCUUUCACGUGCGCGUGAAAGAGAGAAGUGGACCAGAGAAACACACGUUGUGGUAUAUUACCCGGUA [A35G U67C]  0.0903
3. GUCCUCUUUCACGUGCGCGUGAAAGAGAGAAGUGACCCAGAGAAACACACGUUGUGAUAUAUUACCUGGUA [A36C G57A]  0.125
4. GUCCUCUUUCACGUGCGCGUGAAAGAGAGAAGUGACCCAGAGGAACACACGUUGUGGUAUAUUACCUGGUA [A36C A43G]  0.131
5. GUCCUCUUUCACGUGCGCGUGAAAGAGAGAAGUGUACCAGAGAAACGCACGUUGUGGUAUAUUACCUGGUA [A35U A47G]  0.137
6. GUCCUCUUUCACGUGCGCGUGAAAGAGAGAAGUGACCCAGAGAAACACCCGUUGUGGUAUAUUACCUGGUA [A36C A49C]  0.144
7. GUCCUCUUUCACGUGCGCGUGAAAGAGAGAAGUGACCCAGAGAAACACACGUUGUGGUAUGUUACCUGGUA [A36C A61G]  0.148
8. GUCCUCUUUCACGUGCGCGUGAAAGAGAGAAGUGUACCAGAGAAACAUACGUUGUGGUAUAUUACCUGGUA [A35U C48U]  0.162
9. GUCCUCUUUCACGUGCGCGUGAAAGAGAGAAGUGACCCAGAGAAACACACGUUGUGCUAUAUUACCUGGUA [A36C G57C]  0.17
10. GUCCUCUUUCACGUGCGCGUGAAAGAGAGAAGUGUACCAGAGAAACACACGUUGUGGUAUAUUACCCGGUA [A35U U67C]  0.176
11. GUCCUCUUUCACGUGCGCGUGAAAGAGAGAAGUGUACCAGAAAAACACACGUUGUGGUAUAUUACCUGGUA [A35U G42A]  0.181
12. GUCCUCUUUCACGUGCGCGUGAAAGAGAGAAGUGUACCAGAGAAACUCACGUUGUGGUAUAUUACCUGGUA [A35U A47U]  0.185
13. GUCCUCUUUCACGUGCGCGUGAAAGAGAGAAGUGUACCAGAGAAACAAACGUUGUGGUAUAUUACCUGGUA [A35U C48A]  0.186
14. GUCCUCUUUCACGUGCGCGUGAAAGAGAGAAGUGGACCAGAGAAACACACGUUGUGGUAUAUUACCAGGUA [A35G U67A]  0.201
15. GUCCUCUUUCACGUGCGCGUGAAAGAGAGAAGUGACCCAGAGAAACACACGUUGUGGUGUAUUACCUGGUA [A36C A59G]  0.203
16. GUCCUCUUUCACGUGCGCGUGAAAGAGAGAAGUGGACCAGAGAAACACACGUUGUGGUAUAUUACCUGAUA [A35G G69A]  0.204
17. GUCCUCUUUCACGUGCGCGUGAAAGAGAGAAGUGGACCAGAGAAACACACGUUGUGGUAUAUUACCUGCUA [A35G G69C]  0.204
18. GUCCUCUUUCACGUGCGCGUGAAAGAGAGAAGUGGACCAGAGAAACACACGUUGUGGUAUAUUACCGGGUA [A35G U67G]  0.206
19. GUCCUCUUUCACGUGCGCGUGAAAGAGAGAAGUGUACCCGAGAAACACACGUUGUGGUAUAUUACCUGGUA [A35U A39C]  0.208
20. GUCCUCUUUCACGUGCGCGUGAAAGAGAGAAGUGUACCAGAGAAACAGACGUUGUGGUAUAUUACCUGGUA [A35U C48G]  0.215
21. GUCCUCUUUCACGUGCGCGUGAAAGAGAGAAGUGUACCAGAGAGACACACGUUGUGGUAUAUUACCUGGUA [A35U A44G]  0.234
22. GUCCUCUUUCACGUGCGCGUGAAAGAGAGAAGUGUACCAGACAAACACACGUUGUGGUAUAUUACCUGGUA [A35U G42C]  0.246
23. GUCCUCUUUCACGUGCGCGUGAAAGAGAGAAGUGACCCAGAGAAACACGCGUUGUGGUAUAUUACCUGGUA [A36C A49G]  0.28
24. GUCCUCUUUCACGUGCGCGUGAAAGAGAGAAGUGGACCAGAGAAACACACGUUGUGGUAUAUUACCUGUUA [A35G G69U]  0.285
25. GUCCUCUUUCACGUGCGCGUGAAAGAGAGAAGUGUACCAGAGAAACACAAGUUGUGGUAUAUUACCUGGUA [A35U C50A]  0.295
26. GUCCUCUUUCACGUGCGCGUGAAAGAGAGAAGUGGACCAGAGAAACACACGUUGUGGUAUACUACCUGGUA [A35G U62C]  0.338
27. GUCCUCUUUCACGUGCGCGUGAAAGAGAGAAGUGGACCAGAGAAACACACGUUGUGGUAUAAUACCUGGUA [A35G U62A]  0.368
28. GUCCUCUUUCACGUGCGCGUGAAAGAGAGAAGUGUACCAGAGAAACACAGGUUGUGGUAUAUUACCUGGUA [A35U C50G]  0.369
29. GUCCUCUUUCACGUGCGCGUGAAAGAGAGAAGUGUACCAGAGAAACACACGUUUUGGUAUAUUACCUGGUA [A35U G54U]  0.455
30. GUCCUCUUUCACGUGCGCGUGAAAGAGAGAAGUGUACCAGAGAAACACACGUUGUGGAAUAUUACCUGGUA [A35U U58A]  0.464
31. GUCCUCUUUCACGUGCGCGUGAAAGAGAGAAGUGAGCCAGGGAAACACACGUUGUGGUAUAUUACCUGGUA [A36G A41G]  0.536
32. GUCCUCUUUCACGUGCGCGUGAAAGAGAGAAGUGUACCAGAGAAACACACGUUGUGGUAUAUUAACUGGUA [A35U C65A]  0.625
33. GUCCUCUUUCACGUGCGCGUGAAAGAGAGAAGUGGACCAGAGAAACACACGUUGUGGUAUAUUACCUGGGA [A35G U70G]  0.711
34. GUCCUCUUUCACGUGCGCGUGAAAGAGAGAAGUGGACCAGAGAAACACACGUUGUGGAAUAUUACCUGGUA [A35G U58A]  0.73
35. GUCCUCUUUCACGUGCGCGUGAAAGAGAGAAGUGGACCAGAGAAACACACGUUGUGGUAUAUUACCUGGCA [A35G U70C]  0.796
36. GUCCUCUUUCACGUGCGCGUGAAAGAGAGAAGUGGACCAGAGAAACACACGUUGUGGUAUAUUACCUGGAA [A35G U70A]  0.927
37. GUCCUCUUUCACGUGCGCGUGAAAGAGAGAAGUGACCCAGAGAAACACACGUCGUGGUAUAUUACCUGGUA [A36C U53C]  0.953
38. GUCCUCUUUCACGUGCGCGUGAAAGAGAGAAGUGGACCAGAGAAACACACGCUGUGGUAUAUUACCUGGUA [A35G U52C]  1.29
